Test: soluble on expression in E. coli; label from the status in PepcDB or PDB records

Row | Sequence | soluble on expression in E. coli
1 | VASGYGGIRVGGPYFDDLSKGQVFDWAPGVTLSLGLAAAHQSIVGNRLRLALDSDLCAAVTGMPGPLAHPGLVCDVAIGQSTLATQRVKANLFYRGLRFHRFPAVGDTLYTRTEVVGLRANSPKPGRAPTGLAGLRMTTIDRTDRLVLDFYRCAMLPASPDWKPGAVPGDDLSRIGADAPAPAADPTAHWDGAVFRKRVPGPHFDAGIAGAVLHSTADLVSGAPELARLTLNIAATHHDWRVSGRRLVYGGHTIGLALAQATRLLPNLATVLDWESCDHTAPVHEGDTLYSELHIESAQAHADGGVLGLRSLVYAVSDSASEPDRQVLDWRFSALQF | soluble
2 | MDYGMYFFEHVTPYETLVRRMERVIASGKTPFQDYFLFESKGFGKVLILDKDVQSTERDEYIYHETLVHPAMLTHPEPKRVLIVGGGEGATLREVLKHPTVEKAVMVDIDGELVEVAKRHMPEWHQGAFDDPRAVLVIDDARAYLERTEERYDVVIIDLTDPVGEDNPARLLYTVEFYRLVKAHLNPGGVMGMQAGMILLTHHRVHPVVHRTVREAFRYVRSYKNHIPGFFLNFGFLLASDAFDPAAFSEGVIEARIRERNLALRHLTAPYLEAMFVLPKDLLEALEKETMVSTDQNPFYVTPEGEARQAPYKG | soluble
3 | MGSDKIHHHHHHMAKQLPDIGDYKYGFKDKDVSIFRAGRGLTKEIVEEISRMKEEPQWMLDFRLKSLDKFYEMPMPQWGGDLNDLDFDEITYYVKPSEKSEKSWDEVPDEIKATFDKLGIPEAEQKYLAGVSAQYESEVVYHNMKEDLEALGIVFKDTDSALKENEDIFREHFGKVIPPTDNKFAALNSAVWSGGSFIYVPKGVKVDTPLQAYFRINSENMGQFERTLIIVDEGAHVHYVEGCTAPVYTTNSLHSAVVEIIIKKDAYCRYTTIQNWANNVYNLVTKRAVCEENATMEWIDGNIGSKLTMKYPAVILKGEGARGLTLSIAIAGKGQHQDAGAKMIHLAPNTSSTIVSKSIAKHGGKVTYRGIVHFGPKAKNSRSNIECDTLIMDNQSTSDTIPYNEIKNDYVSLEHEAKVSKVSEEQLFYLMSRGISEQEATEMIVMGFIEPFTRELPMEYAVEMNRLIKFEMEGSIG | not soluble
4 | MTKITLSDLPLREELRGEHAYGAPQLNVDIRLNTNENPYPPSEALVADLVATVDKIATELNRYPERDAVELRDELAAYITKQTGVAVTRDNLWAANGSNEILQQLLQAFGGPGRTALGFQPSYSMHPILAKGTHTEFIAVSRGADFRIDMDVALEEIRAKQPDIVFVTTPNNPTGDVTSLDDVERIINVAPGIVIVDEAYAEFSPSPSATTLLEKYPTKLVVSRTMSKAFDFAGGRLGYFVANPAFIDAVMLVRLPYHLSALSQAAAIVALRHSADTLGTVEKLSVERVRVAARLEELGYAVVPSESNFVFFGDFSDQHAAWQAFLDRGVLIRDVGIAGHLRTTIGVPEENDAFLDAAAEIIKLNLSAWSHPQFEK | soluble
5 | MPENYTPAAAATGTWTEEEIRHQPRAWIRSLTNIDALRSALNNFLEPLLRKENLRIILTGAGTSAFIGDIIAPWLASHTGKNFSAVPTTDLVTNPMDYLNPAHPLLLISFGRSGNSPESVAAVELANQFVPECYHLPITCNEAGALYQNAINSDNAFALLMPAETHDRGFAMTSSITTMMASCLAVFAPETINSQTFRDVADRCQAILTSLGDFSEGVFGYAPWKRIVYLGSGGLQGAARESALKVLELTAGKLAAFYDSPTGFRHGPKSLVDDETLVVVFVSSHPYTRQYDLDLLAELRRDNQAMRVIAIAAESSDIVAAGPHIILPPSRHFIDVEQAFCFLMYAQTFALMQSLHMGNTPDTPSASGTVNRVVQGVIIHPWQA | soluble
6 | MQCHVKDEVLYIGKKEFEEPIKSEWVLEMQNTEKYKTIGPTFPDGTINWQCPCMAGGSLVAHRCGNFFRELYICMKSDDTRDPSEKCPNQFVNWAACMQNMSDERREQMRKAMTVDTEELKINPK | not soluble
7 | MPKPYVAINMAELKNEPKTFEMFASVGPKVCMVTARHPGFVGFQNHIQIGILPFGNRYGGAKMDMTKESSTVRVLQYTFWKDWKDHEEMHRQNWSYLFRLCYSCASQMIWGPWEPIYEIIYANMPINTEMTDFTAVVGKKFAEGKPLDIPVISQPYGKRVVAFAEHSVIPGKEKQFEDAIVRTLEMLKKAPGFLGAMVLKEIGVSGIGSMQFGAKGFHQVLENPGSLEPDPNNVMYSVPEAKNTPQQYIVHVEWANTDALMFGMGRVLLYPELRQVHDEVLDTLVYGPYIRILNPMMEGTFWREYLNEQAWRHPQFGG | soluble
8 | MDIHSHQQALDAYENVLEHLREKHIRITETRKAIISYMIQSTEHPSADKIYRDLQPNFPNMSLATVYNNLKVLVDEGFVSELKISNDLTTYYDFMGHQHVNVVCEICGKIADFMDVDVMDIAKEAHEQTGYKVTRIPVIAYGICPDCQAKDQPDF | not soluble
9 | MRTKYILELFDTSEQHKPIARFESSTPFTAASVGERFDDIGWERLDGAGKIASPLSPKRYTVHSAKHLVIVEAGALVIKYCLNLEPFSGPSSPVWGDE | not soluble
10 | MDQKTRIVAAVIKGVKLPPRFRLRLLKEDPVRLELSLTPAYGKDPVTVGLVESLDLVARRDREGRIPRDLQGTWDWTVRHGKVSTGGWNPYLKEALQTMFETGLPAIVFEELTGEEYHPVDGTRHVR | not soluble
11 | MGGLSAQSTAATATMGGKNKQRTKGNLRPSNSGRAAELLAKEQGTVPGFIGFGTSQSDLGYVPAIQGAEEIDSLVDSDFRMVLRKLSKKDVTTKLKAMQEFGTMCTERDTETVKGVLPYWPRIFCKISLDHDRRVREATQQAFEKLILKVKKQLGPYLKSLMGYWLMAQCDTYTPAAFAAKDAFEAAFPPSKQPEAIAFCKDEITSVLQDHLIKETPDTLSDPQTVQRKKEKLNSTGLLEHHHHHH | not soluble
12 | MGGSHHHHHHGMASALAPKQDPKPKFQEGERVLCFHGPLLYEAKCVKVAIKDKQVKYFIHYSGWNKNWDEWVPESRVLKYVDTNLQKQRELQKANQEQYAEGKMRGAAPGKKTSGLQQKNVEVKTKKNKQKTPGNGDGGSTSETPQPPRKKRARVDPTVENEETFMNRVEVKVKIPEELKPWLVDDWDLITRQKQLFYLPAKKNVDSILEDYANYKKSRGNTDNKEYAVNEVVAGIKEYFNVMLGTQLLYKFERPQYAEILADHPDAPMSQVYGAPHLLRLFVRIGAMLAYTPLDEKSLALLLNYLHDFLKYLAKNSATLFSASDYEVAPPEYHRKAV | not soluble
13 | NDIYNNAITPYLNKETGYQEMFQRVNTRIREFMINELKNHHNEDNVFMLAKNSGIEIAKIEEAPNAVLIPAFVLGELEVAFK | not soluble
14 | MATTSAQTSPTEFGAGLPEAEDHSESAEPQSVEAEVIDERYADVWEKIQHARTIDVHDDAEVRKQRNFFDDKQKFMTQVTQRAEPFLYYIVSQLEARNMPLELALLPIVESGYNPLAQANGPAGLWQMIPATGRNFGLTINSAYDGRKDALASTDAVLDYLQHLYNTLGNDWINAVAGYNSGELVIKAAIDRNKAKGKPTDFWSLNIPARQVQTVPKWLAFIQIIREPSHYNLKVMPIANRPFLERLPAPNGVEISQIANAAGLTKAEFKTYNPGYRQSVIPSKGKYQIALPIENIGHYQENQHKLYAQKRYDSQTYIVKSGDSLGTIAAKFDLSVKELKQANNLTSDRLKIGQELTLLTPMAANDNEPEPVKTKANTDKSSTKANASSTKATSSKSTDKPVAKAKTYKVKSGDSLDKIARKSKVKLADLMKWNQLNAKSIIKPGQELKISELEHHHHHH | not soluble
15 | MAHHHHHHMKKLHQERGGNPMLAQQARRVLFATSITGQNIDARSIALLLNTAVYFGMESDARVVRECIDFCLKNDKFISLDIMPIVVTACATLQSRDAREVIELQAIKATRNARFLDAKGVTNVISAFSKTGINHEKLFGLLSMRVQTLARVGEFEAAHLVILANAFARLRFREQHVFSAIARRAMSLRERVTVNELVPLINAFSKAGLKDPKLSKRFAGKAMEYVDQMNAEQVALMFQAFAYFGIRYDQLFGVLTNRAVELIDEFNAQYISTTLASFQRIGINNPELFDNLAERALAVVQDHDAKDIALTVTALAHFGLKDEELFKRLASHAASIADQFDPVGLVNTIHAFARTFFLQEDMVVALSERCVYVCRHLDANQVRRLLWSLAKFQVKDPRILTPVFNRCLTLHQDFFSDPMGGEEIEEIFDVFGPSFCPPLYQLYMSRGNSV | not soluble
16 | MTSGQFKPVPQILMELPPAEQQRLFNEAAAIIRHLEWTDAVQLTALVMGSEALQQQLLAMLVNYVTKELRAEIQYDD | soluble
17 | EEIFCHVYITEHSYVSVKAKVSSIAQEILKVVAEKIQYAEEDLALVAITFSGEKHELQPNDLVISKSLEASGRIYVYRKDLADTLNPFAEN | soluble
18 | MPIRGFHYRGDEAIYPASVVKLFYLVAALEWLQQGMIQPSAELDRALRDMIVDSSNDATGYIVDLLSGTTSGPELGDGPFKTWQFQRNIVNRYYQSLMWPELQPINVNQKTWGDGPYGRERAFYGPEFENRNKLTTNATARLLHAIAGGVAVSPSASQRMLNLLNRPFDPRSLAEDPENQVTGFLGQDLPQGSQLWSKAGWMSRVRHDAAYLEIPGLPPHLLVAFTEGKEHANNEAILPFIAQQVRQQLQPALEHHHHHH | not soluble
19 | MGSDKIHHHHHHMLCAISGKVPRRPVLSPKSRTIFEKSLLEQYVKDTGNDPITNEPLSIEEIVEIVPSAQQASLTESTNSATLKANYSIPNLLTSLQNEWDAIMLENFKLRSTLDSLTKKLSTVMYERDAAKLVAAQLLMEKNEDSKDLPKSSQQAVAITREEFLQGLLQSSRDFVARGKLKAPKWPILKNLELLQAQNYSRNIKTFPYKELNKSMYYDKWVCMCRCEDGALHFTQLKDSKTITTITTPNPRTGGEHPAIISRGPCNRLLLLYPGNQITILDSKTNKVLREIEVDSANEIIYMYGHNEVNTEYFIWADNRGTIGFQSYEDDSQYIVHSAKSDVEYSSGVLHKDSLLLALYSPDGILDVYNLSSPDQASSRFPVDEEAKIKEVKFADNGYWMVVECDQTVVCFDLRKDVGTLAYPTYTIPEFKTGTVTYDIDDSGKNMIAYSNESNSLTIYKFDKKTKNWTKDEESALCLQSDTADFTDMDVVCGDGGIAAILKTNDSFNIVALTP | not soluble
20 | MGSDKIHHHHHHMFEPFPGNYVWNLGINLALIAGGNHGELDEVCRPVREAAKAGADAGSALLFDSWIAVADQVTRNAERDEAEGFLLSAGAKYLRASGYYLGAERLQSRDYAPRWVAYDKGLELYHKGSALSGLHVDKVEIPYEGSSYPAIFVHDGSGTPRPTLVSVNGLDSMKEQVNMAGHGAVNLARGMNTLFLDQPGTGEAIRKRNLPAVFDAERWGSPAFDYLLTRSDVIHSQIGIFGLSFGGYHAPRIAANDPRYALCAVMGANHVWGQRQRERVANEGENPVPHYWDHVMWVFGIDDQAAFLEYADQITLDGQVEKIRVPFLITHGENDRQIPAYNAQMSYDQAVNSPKRTLRIFTRADFEVEHCGADNGTGMRDYIADWCAQTFAEMAGNKG | not soluble
21 | AEIFATHLEAIARHTGPVRTLIDLGAGDCAKAERLLPCLRPQRYVPIDISTDFLGQAVARVRRAHPWLDVLPLGRDLNAGLDLPEAIDAQGRLFFYPGSSIGNLDPDAALALLASLRAQAGVSGGLLIGVDRVKARAIVEPAYDDALHLTGAFNLNLLRHVNSVLGSDFDVRDWTHVALYNEPRSRMEMHLQARSDIRVRWPGGQRRFQADERIHTENSYKYTIERFVDLLRRAGYGDIRYWSDARDWFSVFSARA | not soluble
22 | MNCRGHETRQRIVRDFEVQPKAHIKLLANQQKHSDAGATIEDEYYVFIAESKIDGKKEVIQCCMGAARDFLELINHKGLPLFNPLVGDSHVNNRQEYDNTGSGNL | not soluble
